Among the data in patent US20140234872A1 are reduction of binding against full length SHP-1 values, retold here.

In this assay the target is GST-SHP-1 ΔN+CSH2 (amino acids 276-end) (human) (UniProt P29350). In words: GST pulldown (FIG. 20B).
GST-SHP-1 ΔN+CSH2 (amino acids 276-end) (human), sequence (P29350 276-595, stated change not applied): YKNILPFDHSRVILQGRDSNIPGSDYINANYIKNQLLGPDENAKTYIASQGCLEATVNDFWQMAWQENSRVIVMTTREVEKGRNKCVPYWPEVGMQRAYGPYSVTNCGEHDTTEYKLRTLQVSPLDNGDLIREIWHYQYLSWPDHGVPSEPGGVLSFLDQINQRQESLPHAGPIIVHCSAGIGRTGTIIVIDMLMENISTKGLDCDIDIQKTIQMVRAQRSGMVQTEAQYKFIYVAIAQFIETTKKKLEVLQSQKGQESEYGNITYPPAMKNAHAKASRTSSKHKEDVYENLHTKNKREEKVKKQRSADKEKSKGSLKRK

B1: His-GIV-CT (aa 1660-1870), wild-type, not phosphorylated (mock- or sham-treated) (protein, not shown: small tags and cut ends)
chain: SETLESRHHKIKTGSPGSEVVTLQQFLEESNKLTSVQIKSSSQENLLDEVMKSLSVSSDFLGKDKPVSCGLARSVSGKTPGDFYDRRTTKPEFLRPGPRKTEDTYFISSAGKPTPGTQGKIKLVKESSLSRQSKDSNPYATLPRASSVISTAEGTTRRTSIHDFLTKDSRLPISVDSPPAAADSNTTAASNVDKVQESRNSKSRSREQQSS
For the molecule B1, the reduction of binding against full length SHP-1 was found to be 80%.
